The record followed here is patent publication US20230227832, “ANTICANCER APTAMERS AND USES THEREOF” (CONSIGLIO NAZIONALE DELLE RICERCHE, published 2023).

One data set has as its target Serum albumin (HSA) (Homo sapiens, UniProt P02768 P02768:25-609). The data set is described as follows: ELONA; plate coated with 30 nM HSA; figure legend says bovine serum albumin. The conditions noted are these: tags: Sigma Aldrich; label: biotin. On the procedure:
For ELONA, wells of a 96-well High Binding microplate (Nunc MaxiSorp) were left uncoated or coated with exosomes (4 μg) o.n. All the subsequent steps were performed at room temperature. Following incubation, the plate was blocked with 300 μl 3% BSA (AppliChem) in PBS for 2 hours and incubated with 100 μL biotinylated aptamers (Tebu-bio), dissolved in PBS for 2 hours. Then the plate was washed three times with 300 μl PBS and streptavidin-HPR dissolved in 100 μl PBS (Sigma Aldrich) was added with dilution 1:10000. After 1 hour of incubation, the plate was washed three times before the addition of the TMB developing solution. The reaction was stopped with 0.16 M sulfuric acid and signal strength was analyzed by measuring absorbance at 450 nm with a microplate reader (Thermo Scientific).
MDA-MB-231-derived exosomes and increasing concentrations of aptamer (ex-50.T or control) were used to calculate the binding affinity. The Kd was determined by means of GraphPad Prism. To verify the binding on human serum alumina (HSA), the plate coating was performed at 30 nM HSA (Sigma Aldrich).

The target in data set [1] is T1, Gremlin-1 (GREM1), recombinant human (Homo sapiens, UniProt O60565 O60565:25-184).
T1 sequence: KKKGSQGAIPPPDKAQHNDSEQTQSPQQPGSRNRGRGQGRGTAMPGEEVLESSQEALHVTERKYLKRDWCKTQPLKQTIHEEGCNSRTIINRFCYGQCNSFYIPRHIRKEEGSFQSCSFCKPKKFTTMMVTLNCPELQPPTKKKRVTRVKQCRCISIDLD
Nature of the data set: ELONA; room temperature, PBS; biotinylated aptamer, streptavidin-HRP. As to conditions: label: biotin.

Chain of Serum albumin (HSA) (P02768 25-609, one chain of several): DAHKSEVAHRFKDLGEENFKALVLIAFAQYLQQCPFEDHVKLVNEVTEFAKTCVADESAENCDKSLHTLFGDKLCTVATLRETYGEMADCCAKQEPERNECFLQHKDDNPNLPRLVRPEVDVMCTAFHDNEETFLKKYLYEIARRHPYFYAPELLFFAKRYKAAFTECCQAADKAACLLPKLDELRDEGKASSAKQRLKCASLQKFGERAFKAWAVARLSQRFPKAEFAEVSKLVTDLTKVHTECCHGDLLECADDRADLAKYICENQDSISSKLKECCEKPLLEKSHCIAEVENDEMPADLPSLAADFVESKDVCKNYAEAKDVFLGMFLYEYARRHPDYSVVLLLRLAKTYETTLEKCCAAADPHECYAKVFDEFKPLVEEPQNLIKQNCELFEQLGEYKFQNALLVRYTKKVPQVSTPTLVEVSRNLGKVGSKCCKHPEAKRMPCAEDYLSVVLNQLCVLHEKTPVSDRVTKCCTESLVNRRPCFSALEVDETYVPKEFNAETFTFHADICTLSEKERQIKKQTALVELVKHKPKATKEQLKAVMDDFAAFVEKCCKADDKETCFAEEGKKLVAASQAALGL

B1: ex-50.T (ssRNA)
RNA: UGUGGCAGUUAAGAAUAGAUCUUCGCUGCGAUU
modifications: 2'-F pyrimidines (2'-F-C, 2'-F-U; per library chemistry)
For orientation: Kd means the free concentration of one partner at which half of the binding sites on the other are occupied at equilibrium, for simple one-to-one binding. Consider B1, for which the binding result with Serum albumin (HSA) is “no binding”. In addition, in data set [1], the Kd came to 37.7 nM.
